This is an account of results in US20220348664A1.

Test [1] addresses human PD-L1, full length, on CHO-K1 cells (W315-CHO-K1.hPro1.C11) (human) (UniProt Q9NZQ7). Description: FACS on human PD-L1-expressing CHO-K1 cells, PE anti-human IgG detection.
Test [2] concerns the target human PD-L1 ECD with mouse Fc tag (W315-hPro1.ECD.mFc) (human) (UniProt Q9NZQ7). Description: ELISA, plate coated with human PD-L1 ECD-mFc, HRP anti-human IgG detection. In general terms: ELISA stands for enzyme-linked immunosorbent assay.
Test [3] concerns the target mouse PD-L1 ECD with mouse Fc tag (W315-mPro1.ECD.mFc) (mouse) (UniProt Q9EP73). Description: ELISA, plate coated with mouse PD-L1 ECD-mFc, HRP anti-human IgG detection.
Test [4] addresses human PD-L1 protein (SPR analyte) (human) (UniProt Q9NZQ7). The test is described as follows: SPR (Biacore 8K), antibody captured on anti-human IgG Fc chip, antigen as analyte, 1:1 fit. In general terms: SPR reads the build-up and loss of mass on a sensor chip optically.
In test [5] the target is cyno PD-L1 protein (SPR analyte) (cynomolgus) (UniProt G7PSE7). Described as above.
Sequence of cyno PD-L1 protein (SPR analyte) (cynomolgus) (G7PSE7 entry or part of it): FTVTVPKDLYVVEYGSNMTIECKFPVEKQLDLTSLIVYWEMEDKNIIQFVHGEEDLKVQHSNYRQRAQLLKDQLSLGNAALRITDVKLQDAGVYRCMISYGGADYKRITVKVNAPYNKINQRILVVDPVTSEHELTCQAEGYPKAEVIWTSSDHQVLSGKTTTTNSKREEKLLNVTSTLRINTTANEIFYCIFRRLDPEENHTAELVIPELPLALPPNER
The target in test [6] is mouse PD-L1 protein (SPR analyte) (mouse) (UniProt Q9EP73). The description is as above.
Sequence of mouse PD-L1 protein (SPR analyte) (mouse) (Q9EP73 19-239 limits assumed): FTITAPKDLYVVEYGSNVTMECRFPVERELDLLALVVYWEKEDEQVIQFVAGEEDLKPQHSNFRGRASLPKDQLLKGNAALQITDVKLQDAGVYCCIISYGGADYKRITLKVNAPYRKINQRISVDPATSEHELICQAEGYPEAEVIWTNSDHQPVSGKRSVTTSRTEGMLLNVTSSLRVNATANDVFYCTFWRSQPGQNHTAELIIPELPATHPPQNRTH
The target of test [7] is cynomolgus PD-L1 ECD with His tag (W315-cynoPro1.ECD.His) (cynomolgus) (UniProt G7PSE7). The test is described as follows: ELISA, plate coated with cynomolgus PD-L1 ECD-His, HRP anti-human IgG detection.
Sequence of cynomolgus PD-L1 ECD with His tag (W315-cynoPro1.ECD.His) (cynomolgus) (G7PSE7 entry or part of it): as the sequence (G7PSE7 entry or part of it) above
Test [8] deals with human LAG-3 ECD with mouse Fc tag (W339-hPro1.ECD.mFc) (human) (UniProt P18627). Description: ELISA competition, blocking of mouse Fc-tagged LAG-3 binding to coated human FGL-1 (competitor FGL-1).
Sequence of human LAG-3 ECD with mouse Fc tag (W339-hPro1.ECD.mFc) (human) (P18627 23-450): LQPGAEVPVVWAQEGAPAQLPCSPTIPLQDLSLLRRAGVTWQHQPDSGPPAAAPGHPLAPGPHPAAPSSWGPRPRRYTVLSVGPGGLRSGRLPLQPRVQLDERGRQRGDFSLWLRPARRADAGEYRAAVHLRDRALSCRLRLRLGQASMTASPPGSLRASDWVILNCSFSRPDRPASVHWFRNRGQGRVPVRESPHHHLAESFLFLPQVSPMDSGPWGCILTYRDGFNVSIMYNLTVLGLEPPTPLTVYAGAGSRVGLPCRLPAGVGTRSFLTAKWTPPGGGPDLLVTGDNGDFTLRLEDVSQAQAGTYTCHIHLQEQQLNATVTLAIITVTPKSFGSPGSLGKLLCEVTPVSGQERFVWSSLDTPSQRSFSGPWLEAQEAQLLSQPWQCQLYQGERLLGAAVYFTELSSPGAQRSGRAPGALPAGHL
For test [9] the target is unchanged. Description: FACS competition, blocking of mFc-tagged LAG-3 binding to MHC-II on Raji cells (competitor MHC-II).
The target is the same in test [10]. The test is described as follows: FACS competition: antibody pre-incubated with mFc-tagged LAG-3, binding of LAG-3 to MHC-II on Raji cells detected with anti-mouse IgG Fc-PE; Top is the upper plateau of the LAG-3 signal.
In test [11] the target is human LAG-3, full length, on cells (W339-FlpIn293.hPro1.A3) (human) (UniProt P18627). Description: FACS on human LAG-3-expressing 293 cells, PE anti-human IgG detection.
Sequence of human LAG-3, full length, on cells (W339-FlpIn293.hPro1.A3) (human) (P18627 23-525): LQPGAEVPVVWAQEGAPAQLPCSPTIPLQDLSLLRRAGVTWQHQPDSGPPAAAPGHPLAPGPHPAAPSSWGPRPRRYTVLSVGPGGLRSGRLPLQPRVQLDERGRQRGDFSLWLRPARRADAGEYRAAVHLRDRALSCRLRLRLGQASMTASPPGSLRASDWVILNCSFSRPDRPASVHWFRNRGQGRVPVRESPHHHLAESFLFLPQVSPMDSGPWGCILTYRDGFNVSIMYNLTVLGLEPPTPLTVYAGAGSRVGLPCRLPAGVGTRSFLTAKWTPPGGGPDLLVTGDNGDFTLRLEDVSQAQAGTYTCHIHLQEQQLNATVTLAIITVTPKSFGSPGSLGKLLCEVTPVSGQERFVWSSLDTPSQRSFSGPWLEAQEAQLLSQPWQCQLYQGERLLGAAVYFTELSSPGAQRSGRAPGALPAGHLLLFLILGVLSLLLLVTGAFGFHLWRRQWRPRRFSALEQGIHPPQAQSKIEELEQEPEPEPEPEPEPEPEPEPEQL
Test [12] concerns the target cynomolgus LAG-3 protein (Sino-90841-C08H) (cynomolgus). The test is described as follows: ELISA, cynomolgus LAG-3-His captured by coated anti-His, HRP anti-human IgG detection.
Test [13] deals with human LAG-3 ECD with mouse Fc tag (W339-hPro1.ECD.mFc) (human) (UniProt P18627). Description: ELISA, human LAG-3 ECD-mFc captured by coated goat anti-mouse F(ab)2, HRP anti-human IgG detection.
Test [14] deals with human LAG-3 protein (SPR analyte) (human) (UniProt P18627). Description: SPR (Biacore 8K), antibody captured on anti-human IgG Fc chip, antigen as analyte, 1:1 fit.
Sequence of human LAG-3 protein (SPR analyte) (human) (P18627 23-450 limits assumed): as the sequence (P18627 23-450) above

Sequence of human PD-L1, full length, on CHO-K1 cells (W315-CHO-K1.hPro1.C11) (human) (Q9NZQ7 19-290): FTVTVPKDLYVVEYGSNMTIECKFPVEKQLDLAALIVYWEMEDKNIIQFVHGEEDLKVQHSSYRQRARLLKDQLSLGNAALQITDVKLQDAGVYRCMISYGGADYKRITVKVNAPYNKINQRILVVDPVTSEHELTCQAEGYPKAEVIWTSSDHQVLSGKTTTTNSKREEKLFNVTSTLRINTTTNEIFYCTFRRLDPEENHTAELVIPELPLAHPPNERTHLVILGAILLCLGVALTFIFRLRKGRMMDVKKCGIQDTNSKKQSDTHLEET
Sequence of human PD-L1 ECD with mouse Fc tag (W315-hPro1.ECD.mFc) (human) (Q9NZQ7 19-238): as the sequence (G7PSE7 entry or part of it) above, with T33A, S34A, N62S, Q68R, R82Q, L173F, A185T, I192T, L215H counted along it
Sequence of human PD-L1 protein (SPR analyte) (human) (Q9NZQ7 19-238 limits assumed): as the sequence (G7PSE7 entry or part of it) above, with T33A, S34A, N62S, Q68R, R82Q, L173F, A185T, I192T, L215H counted along it
Sequence of mouse PD-L1 ECD with mouse Fc tag (W315-mPro1.ECD.mFc) (mouse) (Q9EP73 19-239): as the sequence (Q9EP73 19-239 limits assumed) above

The EC50 is the concentration giving half of the maximal effect. A low value points to a more potent agent. As a reminder, the Kd is a measure of binding affinity in units of concentration. Higher therefore signals weaker binding. Regarding WBP315-BMK8 (Atezolizumab) (antibody), the EC50 in test [1] was 0.208 nM; in test [2], 0.035 nM; in test [3], 0.04 nM; in test [7], 0.053 nM. Besides, the Top in test [1] came to 8790 MFI; in test [2], 2.45 OD450-OD540; in [7], 1.98 OD450-OD540. Moreover, the Kd in test [4] came out at 0.0794 nM; in test [5] it was 6.29 nM; in [6], 2.31 nM.
For orientation: IC50 means the concentration at which inhibition is half-maximal. The koff is the first-order rate constant of dissociation. A high value points to fast dissociation. As usually defined, the kon is the second-order rate constant of association. Low readings indicate slower complex formation, high ones faster complex formation. As to WBP339-BMK1 (25F7) (antibody), the half-inhibitory concentration (IC50) in [8] turned out to be 6.37 nM; in [9], 1.88 nM. Besides, the Top in test [10] amounted to 2910 MFI; in test [11], 1180 MFI. For the same substance, the EC50 in [11] was determined as 0.237 nM; in [12], 3.79 nM; in test [13], 0.22 nM. Also, the Kd in test [14] was 0.62 nM. Further, the koff in test [14] stood at 0.000315 s⁻¹. This substance showed a kon in test [14] of 508000 M⁻¹ s⁻¹.
